Results reported in patent US20030148447A1 (ZymoGenetics, published 2003).

What was measured:
[1] = target: factor present in the activated monkey spleen conditioned media; test: cell-based or functional assay
[2] = target: factor present in the activated CD3+ selected human T-cell conditioned media; test: cell-based or functional assay

Binder | inhibition of conditioned-medium-driven BaF3/Zalpha11 cell growth; soluble receptor concentration giving complete inhibition [1] [µg/mL] | titration of soluble receptor; lowest concentration completely inhibiting BaF3/Zalpha11 growth [1] [ng/mL] | inhibition of conditioned-medium-driven BaF3/Zalpha11 cell growth; soluble receptor concentration giving complete inhibition [2] [µg/mL] | titration of soluble receptor; lowest concentration completely inhibiting BaF3/Zalpha11 growth [2] [ng/mL]
zalpha11CFLG soluble receptor (zalpha11 extracellular domain with C-terminal FLAG tag) (receptor, first Trp of the WSXWS motif C-mannosylated in ~35% of molecules (BHK)) not shown | 10 | 20 | 10 | 20
zalpha11CEE soluble receptor (zalpha11 extracellular domain with C-terminal Glu-Glu tag) (receptor, first Trp of the WSXWS motif C-mannosylated in ~46% of molecules (BHK)) not shown | 10 | 20 | 10 | 20
